Test results published in patent US20250195685A1 (CAPSTAN THERAPEUTICS, published 2025).

Columns and labels:
[1] = target: T1, human CD8αα homodimer, recombinant protein (Acro Biosystems) (human, UniProt P01732 22-182); assay: SPR (Biacore 8K), antibody captured by anti-human Fc, CD8 as analyte, 1:1 fit, 25 °C
T1 construct: also called CD8αα antigen; biotinylated CD8α recombinant protein (CDA-H82E3)
Procedure: (§1) Except for cynomolgus CD8αβ heterodimer, binding was analyzed with a two-fold dilution series of recombinant CD8αα homodimer or CD8αβ heterodimer protein from 200 nM to 6.25 nM. For cynomolgus CD8αβ heterodimer, binding was analyzed with a two-dilution series from 400 nM to 12.5 nM.. The global fitting was performed with a 1:1 fitting model using GatorOne software as described below.
(§2) Surface plasmon resonance (SPR) assays were performed using a Biacore 8K SPR instrument (Cytiva) in a running buffer containing 1×HBS-N(Cytiva) and 0.05% Tween-20 at 25° C. The CBD1033 antibody was captured by anti-human IgG (Fc) antibody (Cytiva) immobilized on a CM5 sensor chip (Cytiva) at a density within 40-50 and 80-100 response units (RU) for kinetic measurements with CD8αα and CD8αp, respectively. To measure the binding kinetics, serial two-fold dilutions of recombinant CD8 protein were prepared in the running buffer were injected into the flow cells at […], with the concentration ranging from 200 to 6.25 nM (successive 1:2 dilutions). The association data was collected for 180 s followed by a 1200 s dissociation step. At the end of each binding cycle, the sensor surface was regenerated with a 3M MgCl₂ buffer. For cynomolgus macaque CD8αβ heterodimer, the binding kinetics were assessed with the same experimental parameters, except the concentration ranges from 400 to 12.5 nM. Sensorgrams were generated, and background-subtracted with the blank running buffer. The binding kinetic parameters were analyzed and determined with a standard 1:1 monovalent binding (Langmuir) model using BIAcore Evaluation software (Cytiva).

[2] = target: T2, cynomolgus macaque CD8αβ heterodimer, recombinant protein (cynomolgus macaque); assay: as above
T2 construct: In BLI coupled directly to amine-reactive sensor tips; also called cynomolgus CD8αβ heterodimer
Procedure: as §1, §2

[3] = target: T3, cynomolgus macaque CD8αα homodimer, recombinant protein (cynomolgus macaque); assay: as above
T3 construct: also called cynomolgus CD8αα homodimer
Procedure: as §1, §2

[4] = target: human CD8αβ heterodimer, recombinant protein (human, UniProt P01732 22-182; P10966 22-170, limits assumed); assay: as above
Procedure: as §1, §2

[5] = target: T1, human CD8αα homodimer, recombinant …; assay: BLI, whole antibody, steady state dissociation constant (column head x10^-9M)
Procedure: (§3) To assess affinity of whole antibodies, steady state analysis was used as the bivalent nature of both whole antibody and CD8α complicates kinetic analysis. 50 nM CD8α-His (that is, CD8α with a C-terminal oligohistidine tag; Acro) was immobilized on Ni-NTA sensor probes. Binding was analyzed with a three-fold antibody dilutions series: 60 nM, 20 nM, 6.67 nM, 2.22 nM, 0.74 nM, and 0.25 nM. The antigen-loaded sensors were incubated in the diluted solutions to capture the whole IgG antibody for 300 s to record the association phase. Sensors were incubated in the kinetic buffer for 900 s to record the dissociation phase. The spin speed was 1000 rpm for all steps except the antigen loading step which was 400 rpm to control density of the antigen. The temperature of the performed assays was at 30° C. during the association and dissociation phases. The sensor data were baseline subtracted and further analyzed in GatorOne software (version 2.10) to determine the equilibrium dissociation constants (KD) of the antibodies by fitting the signals of the steady states to the 1:1 binding model.

[6] = target: T1, human CD8αα homodimer, recombinant …; assay: BLI steady state analysis of the data of FIG. 2D
Procedure: The global fitting was performed with a 1:1 fitting model using GatorOne software as described below.
as §3

human CD8αβ heterodimer, recombinant protein, sequence (P01732 22-182 limits assumed, chain 1 of 2): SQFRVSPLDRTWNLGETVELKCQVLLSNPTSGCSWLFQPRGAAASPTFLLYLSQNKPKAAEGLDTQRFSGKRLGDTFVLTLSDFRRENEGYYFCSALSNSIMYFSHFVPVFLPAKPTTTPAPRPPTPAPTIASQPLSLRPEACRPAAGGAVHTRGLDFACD
human CD8αβ heterodimer, recombinant protein, sequence (P10966 22-170 limits assumed, chain 2 of 2): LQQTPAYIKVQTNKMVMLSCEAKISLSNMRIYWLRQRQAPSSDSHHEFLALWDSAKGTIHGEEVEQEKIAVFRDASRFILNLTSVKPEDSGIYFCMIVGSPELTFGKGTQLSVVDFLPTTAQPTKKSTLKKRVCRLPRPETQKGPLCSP
T1 sequence (P01732 22-182 limits assumed): as the sequence (P01732 22-182 limits assumed, chain 1 of 2) above

B1: CBD1033 whole antibody, human IgG1 with Fc-silencing mutations L234A, L235A and P329A (CBD1033-hIgG1-LALAPA) (antibody, V domains shown)
VH: QVQLVQSGAEVKKPGASVKVSCKASRYTFTDYNLHWVRQAPGQGLEWMGFIYPYNGGTGYAQKFQGRVTMTVDTSTSTAYMELSSLRSEDTAVYYCARDHRYNEGVSFDYWGQGTTVTVSS
VL: DIQLTQSPSSLSASVGDRATITCRASESVDGFGNSFMNWYQQKPGKAPKLLIYLASNLESGVPSRFSGSGSGTDFTLTISSVQPEDFATYYCQQNNEDPYTFGQGTKLEIKR
notes: On tLNPs the antibody was SATA-modified or AJICAP-thiolated (CBD1033.29) and conjugated to the LNP; also called CBD1033.3; CBD1033 IgG1
Kd [1]: 2.46 nM
koff [1]: 0.000289 s⁻¹
kon [1]: 117000 M⁻¹ s⁻¹
Kd [2]: 31 nM
koff [2]: 0.00114 s⁻¹
kon [2]: 36800 M⁻¹ s⁻¹
Kd [3]: 5.43 nM
koff [3]: 0.000271 s⁻¹
kon [3]: 50000 M⁻¹ s⁻¹
Kd [4]: 8.99 nM
koff [4]: 0.00111 s⁻¹
kon [4]: 124000 M⁻¹ s⁻¹
Kd [5]: 1.43 nM
Kd [6]: 2.27 nM
